Like-named read-outs stand apart in the source and are kept apart here. One block for each compound: values may come before it. Where a SMILES comes first, the peptide text is derived from it. [ ]: non-standard residue; d: D form. The star is where a group is joined. X1 = O=C(O)CC[C@H](NC(=O)N[C@@H](CCCCNC(=O)CCCCCCC(=O)*)C(=O)O)C(=O)O; d2Nal = N[C@H](Cc1ccc2ccccc2c1)C(=O)O; Mercaptoacetyl = O=C(CS)*
What was measured:
PSMA [1] = biological target: T1, PSMA (Homo sapiens, UniProt Q04609); assay: Competitive binding experiments (IC50) using PSMA-expressing LNCaP cells and ([125I]I-BA)EuK as standard radioligand
T1 construct: using PSMA-expressing LNCaP cells and ([^125I]I-BA)EuK as standard radioligand; endogenous in cells; host or cells: LNCaP cells
T1 sequence (Q04609 whole entry): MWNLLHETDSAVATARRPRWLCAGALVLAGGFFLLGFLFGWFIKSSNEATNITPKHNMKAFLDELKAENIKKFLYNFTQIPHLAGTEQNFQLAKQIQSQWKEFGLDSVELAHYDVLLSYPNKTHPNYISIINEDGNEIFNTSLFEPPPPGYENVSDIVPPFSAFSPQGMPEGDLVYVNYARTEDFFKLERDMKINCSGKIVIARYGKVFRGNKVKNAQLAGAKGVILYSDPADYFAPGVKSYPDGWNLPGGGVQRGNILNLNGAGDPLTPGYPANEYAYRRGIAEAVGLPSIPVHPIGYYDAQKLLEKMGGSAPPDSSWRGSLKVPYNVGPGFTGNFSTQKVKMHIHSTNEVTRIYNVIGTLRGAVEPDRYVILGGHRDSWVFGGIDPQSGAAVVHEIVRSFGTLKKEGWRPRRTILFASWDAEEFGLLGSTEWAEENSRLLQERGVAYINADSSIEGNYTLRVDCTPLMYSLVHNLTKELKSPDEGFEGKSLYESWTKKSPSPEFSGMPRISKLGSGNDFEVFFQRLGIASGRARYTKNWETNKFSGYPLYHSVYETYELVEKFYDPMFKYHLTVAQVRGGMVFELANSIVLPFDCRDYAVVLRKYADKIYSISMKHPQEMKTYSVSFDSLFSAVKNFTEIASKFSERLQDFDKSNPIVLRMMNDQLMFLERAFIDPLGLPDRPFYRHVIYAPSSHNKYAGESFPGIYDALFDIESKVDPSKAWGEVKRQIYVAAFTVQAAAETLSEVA
Protocol: Competitive binding experiments (IC50) were carried out in accordance with an established protocol ([…]. et al., Eur. J. Nuc. Mol. Med. Imaging Res., 2014, 4, 63) using PSMA-expressing LNCaP cells and ([^125I]I-BA)EuK as standard radioligand.

PSMA [2] = biological target: T1, PSMA; settings: LNCaP cells; reference compounds, assayed under identical conditions (literature cited in table title); # = free mas3-chelator; cited from earlier work
[3] = Biodistribution in LNCaP xenograft bearing NSG mice; format: in vivo; settings: NSG, mouse, in vivo, iv, total radioactivity; for tissue uptake at 2 h: 1 nmol/animal; for tissue uptake at 6 h: 0.1 nmol/animal
Protocol: (§1) The biodistribution of [^99mTc]PSMA-HSG, [^99mTc]EuK(SO3)Cy5-mas3 and [^99mTc]EuK(SO3)Cy5(SO3)-mas3 was investigated in LNCaP xenograft bearing NSG mice. […] (0.1 nmol-cohort), respectively.
(§2) To assess the influence of the different ligand designs of [^99mTc]PSMA-HSG and [^99mTc]mas3-(SO3)Cy5(SO3)—EuK on in vivo PSMA-targeting and general pharmacokinetics, their in vivo biodistribution was investigated in LNCaP xenograft bearing NSG mice in two different experimental settings: • A) at 2 h p.i. using a ligand dose of 1 nmol/animal. These conditions were chosen to allow comparability of the data from this study (Table 3) with previous results in a different tumor model (Hensbergen, A. W. et al., J. Nucl. Med., 2020, 61, 234-241). Here, [^99mTc]mas3-Cy5(SO3)—EuK was additionally included as an internal reference to establish the “missing link” between studies. • B) at 6 h p.i. using a ligand dose of 0.1 nmol/animal (Table 4). The latter settings were adapted to a timeline and dosing with more similarity to the clinical situation (surgery at a later time point, microdosing principle). Of note, however, a ligand amount of 0.1 nmol/mouse (extrapolation: 280 nmol/70 kg patient) still exceeds the potentially applicable clinical dose (48 nmol/70 kg patient for a compound with a molecular weight of −2100 g/mol). Nevertheless, it represents a dose level at which significant competition effects between unlabeled precursor and radioligand for PSMA binding sites in tumor tissue are not probable (Eder A. C. et al., J. Nucl. Med., 2021, 62, 1461-1467; Kalidindi T. M. et al., Eur. J. Nucl. Med. Mol. Imaging, 2021, 48, 2642-2651).

Plasma protein binding = format: in vitro ADME; settings: plasma
Protocol: Quantum yield, molar extinction coefficient and serum protein binding experiments were performed according to previously published procedures (Hensbergen A. W. et al., Dyes and Pigments, 2018, 152, 19-28).

[4] = Lipophilicity, modified shake-flask method; format: physicochemical
Protocol: The lipophilicity of [^99mTc]PSMA-HSG, [^99mTc]EuK(SO3)Cy5-mas3 and [^99mTc]EuK(SO3)Cy5(SO3)-mas3 was determined via a modified shake-flask method as described ([…]. et al., Eur. J. Nuc. Mol. Med. Imaging Res., 2014, 4, 63).

[5] = system: LNCaP xenograft bearing NSG mice; assay: Biodistribution in LNCaP xenograft bearing NSG mice; format: in vivo
Protocol: as §1, §2

[6] = system: PC346C orthotopic xenografts in Balb/c nude mice; settings: 1 nmol ligand, 2 h p.i.; cited from earlier work

IC50 (PSMA [1]; LNCaP cells, free mas3-chelator, novel compounds): 0.0296 ± 0.0056 µM
Compound: CC(=O)SCC(=O)N[C@H](CO)C(=O)N[C@H](CO)C(=O)N[C@H](CO)C(=O)N[C@H](CCCCNC(=O)CCCCCN1\C(=C/C=C/C=C/C2=[N+](C)c3ccc(S(=O)(=O)O)cc3C2(C)C)C(C)(C)c2cc(S(=O)(=O)O)ccc21)C(=O)N[C@H](Cc1ccc(O)cc1)C(=O)N[C@H](Cc1ccc2ccccc2c1)C(=O)N[C@H](CCCCNC(=O)CCCCCCC(=O)NCCCC[C@H](NC(=O)N[C@@H](CCC(=O)O)C(=O)O)C(=O)O)C(=O)O [PSMA-HSG, Ac-mas3-k(Sulfo-Cy5)-γ-nal-k-Sub-EuK]

Compound: O=C(O)CC[C@H](NC(=O)N[C@@H](CCCCNC(=O)CCCCCCC(=O)NCCCC[C@@H](NC(=O)[C@@H](Cc1ccc2ccccc2c1)NC(=O)[C@@H](Cc1ccc(O)cc1)NC(=O)[C@H](CO)NC(=O)[C@H](CO)NC(=O)[C@H](CO)NC(=O)CS)C(=O)O)C(=O)O)C(=O)O [PSMA-I&S] (Mercaptoacetyl-SSS[dY][d2Nal][dK](X1)-OH)
IC50 (PSMA [2]): 0.0397 ± 0.0012 µM

lower PSMA-affinity compared to [99mTc]PSMA-HSG (PSMA [1]): 4.5 fold
Compound: CC1(C)C(/C=C/C=C/C=C2/N(CCCCNC(=O)CCCCCNC(=O)[C@@H](CO)NC(=O)[C@@H](CO)NC(=O)[C@@H](CO)NC(=O)CS)c3ccc(S(=O)(=O)O)cc3C2(C)C)=[N+](CCCCCC(=O)NCCCC[C@H](NC(=O)N[C@@H](CCC(=O)O)C(=O)O)C(=O)O)c2ccc(S(=O)(=O)[O-])cc21 [[^99mTc]mas3-(SO3)Cy5(SO3)-EuK, metal not drawn]
tissue uptake at 2 h ([3]; Biodistribution: LNCaP tumor): 3.5 ± 1.1 %ID/g
tissue uptake at 2 h ([3]; Biodistribution: blood): 0.7 ± 0.1 %ID/g
tissue uptake at 2 h ([3]; Biodistribution: heart): 0.3 ± 0.1 %ID/g
tissue uptake at 2 h ([3]; Biodistribution: intestines): 4.2 ± 0.4 %ID/g
tissue uptake at 2 h ([3]; Biodistribution: kidneys): 59.2 ± 14.4 %ID/g
tissue uptake at 2 h ([3]; Biodistribution: liver): 1 ± 0.4 %ID/g
tissue uptake at 2 h ([3]; Biodistribution: lung): 1.1 ± 0.2 %ID/g
tissue uptake at 2 h ([3]; Biodistribution: muscle): 0.2 ± 0.03 %ID/g
tissue uptake at 2 h ([3]; Biodistribution: pancreas): 0.3 ± 0.1 %ID/g
tissue uptake at 2 h ([3]; Biodistribution: salivary glands): 3.1 ± 0.5 %ID/g
tissue uptake at 2 h ([3]; Biodistribution: spleen): 4.3 ± 1.3 %ID/g
tissue uptake at 2 h ([3]; Biodistribution: stomach): 0.6 ± 0.1 %ID/g
fraction unbound (Plasma protein binding; Plasma Protein Binding (%)): 0.256
logP [4]: -2.99

Compound: CC1(C)C(/C=C/C=C/C=C2/N(CCCCNC(=O)CCCCNC(=O)[C@@H](CO)NC(=O)[C@@H](CO)NC(=O)[C@@H](CO)NC(=O)CS)c3ccccc3C2(C)C)=[N+](CCCCCC(=O)NCCCC[C@H](NC(=O)N[C@@H](CCC(=O)O)C(=O)O)C(=O)O)c2ccc(S(=O)(=O)[O-])cc21 [[^99mTc]mas3-Cy5(SO3)-EuK, metal not drawn]
tissue uptake at 6 h ([3]; 6 h p.i., read-out: Biodistribution: LNCaP tumor): 8.1 ± 1.4 %ID/g
tissue uptake at 6 h ([3]; 6 h p.i., read-out: Biodistribution: blood): 0.7 ± 0.1 %ID/g
tissue uptake at 6 h ([3]; 6 h p.i., read-out: Biodistribution: heart): 0.3 ± 0.1 %ID/g
tissue uptake at 6 h ([3]; 6 h p.i., read-out: Biodistribution: intestines): 9.7 ± 1.1 %ID/g
tissue uptake at 6 h ([3]; 6 h p.i., read-out: Biodistribution: kidneys): 70 ± 22 %ID/g
tissue uptake at 6 h ([3]; 6 h p.i., read-out: Biodistribution: liver): 1.7 ± 0.3 %ID/g
tissue uptake at 6 h ([3]; 6 h p.i., read-out: Biodistribution: lung): 0.8 ± 0.2 %ID/g
tissue uptake at 6 h ([3]; 6 h p.i., read-out: Biodistribution: muscle): 0.2 ± 0.1 %ID/g
tissue uptake at 6 h ([3]; 6 h p.i., read-out: Biodistribution: pancreas): 0.3 ± 0.1 %ID/g
tissue uptake at 6 h ([3]; 6 h p.i., read-out: Biodistribution: salivary glands): 8.9 ± 2.1 %ID/g
tissue uptake at 6 h ([3]; 6 h p.i., read-out: Biodistribution: spleen): 1.9 ± 0.6 %ID/g
tissue uptake at 6 h ([3]; 6 h p.i., read-out: Biodistribution: stomach): 1.4 ± 0.3 %ID/g
tissue to tissue ratio at 6 h ([3]; 0.1 nmol/mouse, 6 h p.i., 0.1 nmol, read-out: tumor/kidney ratio): 0.12 ± 0.04
tissue uptake at 2 h ([3]; 2 h p.i., read-out: Biodistribution: LNCaP tumor): 6.6 ± 2.8 %ID/g
tissue uptake at 2 h ([3]; 2 h p.i., read-out: Biodistribution: blood): 0.9 ± 0.1 %ID/g
tissue uptake at 2 h ([3]; 2 h p.i., read-out: Biodistribution: heart): 0.4 ± 0.1 %ID/g
tissue uptake at 2 h ([3]; 2 h p.i., read-out: Biodistribution: intestines): 6.3 ± 2.5 %ID/g
tissue uptake at 2 h ([3]; 2 h p.i., read-out: Biodistribution: kidneys): 21 ± 4.2 %ID/g
tissue uptake at 2 h ([3]; 2 h p.i., read-out: Biodistribution: liver): 1.3 ± 0.5 %ID/g
tissue uptake at 2 h ([3]; 2 h p.i., read-out: Biodistribution: lung): 1.1 ± 0.1 %ID/g
tissue uptake at 2 h ([3]; 2 h p.i., read-out: Biodistribution: muscle): 0.2 ± 0.03 %ID/g
tissue uptake at 2 h ([3]; 2 h p.i., read-out: Biodistribution: pancreas): 0.3 ± 0.1 %ID/g
tissue uptake at 2 h ([3]; 2 h p.i., read-out: Biodistribution: salivary glands): 1.7 ± 0.3 %ID/g
tissue uptake at 2 h ([3]; 2 h p.i., read-out: Biodistribution: spleen): 1.9 ± 0.5 %ID/g
tissue uptake at 2 h ([3]; 2 h p.i., read-out: Biodistribution: stomach): 0.5 ± 0.1 %ID/g
tissue to tissue ratio at 2 h ([3]; 1 nmol/mouse, 2 h p.i., 1 nmol, read-out: tumor/kidney ratio): 0.31 ± 0.15
kidney accumulation compared to both ligands containing disulfo-Cy5 ([5]; 2 h p.i., 1 nmol/animal): threefold lower
increase of tumor accumulation over time ([5]; 6 h p.i./0.1 nmol versus 2 h p.i./1 nmol): only slightly increased
absolute intestinal uptake [6]: 1.61±0.29 % iD/g
tumor accumulation [6]: 15.2±2.9 % iD/g
fraction unbound (Plasma protein binding; radiolabelled tracer, four tracers compared in this study, read-out: Plasma Protein Binding (%) (converted)): 0.035
logP ([4]; radiolabelled tracer, shake-flask, read-out: lipophilicity [log POW]): -1.94
